Laboratory results from patent publication US20240287177A1 (Merck KGaA, published 2024).
Numbering of substitutions follows the chain as printed. Read-outs that look alike come from different tables or passages of the source.

What was measured:
[1] = target: NKp30 on human NK cells (human) (UniProt O14931); assay: cell-based or functional assay
[2] = target: FcγRIIIa on human NK cells (human) (UniProt P08637); assay: cell-based or functional assay
[3] = target: recombinant human NKp30 extracellular domain, his-tagged (human) (UniProt O14931); assay: BLI, SEEDbody on anti-human Fc sensors, soluble NKp30, 1:1 fit
[4] = target: T1, recombinant human NKp30 extracellular domain, his-tagged (human, UniProt O14931 19-135); assay: BLI as in Example 1, maximum binding capacity
T1 construct: BLI used human NKp30 bought from Abcam (his-tagged ECD); also called rh NKp30 ECD; human NKp30 (Abcam); not shown: his tag
T1 sequence: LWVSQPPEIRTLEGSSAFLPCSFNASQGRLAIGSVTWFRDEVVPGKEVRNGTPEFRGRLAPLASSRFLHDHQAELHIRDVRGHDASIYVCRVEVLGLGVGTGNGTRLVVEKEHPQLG

[5] = target: T1, recombinant human NKp30 extracellular …; assay: BLI as in Example 1
[6] = target: T1, recombinant human NKp30 extracellular …; assay: BLI as in Example 1, maximum binding capacity; remark: listed apart in the source
[7] = target: T1, recombinant human NKp30 extracellular …; assay: BLI as in Example 1; remark: listed apart in the source

Chain of FcγRIIIa on human NK cells (human) (P08637 17-254): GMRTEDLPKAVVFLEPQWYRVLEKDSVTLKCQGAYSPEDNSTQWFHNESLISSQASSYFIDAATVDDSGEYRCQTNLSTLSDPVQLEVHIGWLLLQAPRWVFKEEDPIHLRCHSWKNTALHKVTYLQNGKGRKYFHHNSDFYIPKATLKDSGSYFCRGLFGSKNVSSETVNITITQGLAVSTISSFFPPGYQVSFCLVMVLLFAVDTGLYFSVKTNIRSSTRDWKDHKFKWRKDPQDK

B1: VHH1 SEEDbody eff- (bispecific antibody, part only; not given: silenced SEED Fc and cetuximab Fab, V domains shown, not shown: another chain or arm of the molecule; a dimerising Fc or GST; small tags and cut ends)
VHH: DVQLQESGGGLVQPGGSLRLSCATSGFTLDDYTIGWVRQAPGKEHEGVSCFSPSDGTTYYADSVKGRFTFSRDNAKNTVYLQMNSLKPEDTAVYYCAASFADGSSWCYDYWGQGTQVTVSS
B1 showed an EC50 (nM), MNC based killing of A431 cells, E:T 80:1 [1] of 0.00171 nM, an EC50, lysis of A431 cells by isolated NK cells, E:T 10:1 [1] of 2.2 pM and a Max. IFNγ release (pg/ml), NK cells with A431 cells [1] of 753 pg/mL. For the same binder, the Max. Killing (% Lysis), MNC based killing of A431 cells, E:T 80:1 [1] was 53 % Lysis, the Max. TNFα release (pg/ml), NK cells with A431 cells [1] was 104 pg/mL and the EC50, lysis of A431 cells by isolated NK cells, E:T 10:1 [2] was 3.2 pM. For the same binder, the Kd [3] was 0.27 nM, the koff [3] was 0.000222 s⁻¹ and the kon [3] was 819000 M⁻¹ s⁻¹.

B2: VHH1 (parental, as tested in Example 8) (VHH)
VHH: B1 VHH
notes: expressed and measured by BLI 'as described in Experiment 1' (there: bispecific SEEDbody on anti-human Fc sensors)
For B2, the “Emax (nm)” value [4] was 0.13 nm and the Kd [5] was 0.248 nM.

B3: VHH1.7 (humanized) (VHH)
VHH: B1 VHH with D1E, Q5V, L11V, T24A, E44G, H45L, V79L, K87R, P88A, Q116L
notes: as for B2
With B3 the “Emax (nm)” value [4] was 0.09 nm and the Kd [5] was 0.533 nM.

B4: VHH1.3 (humanized) (VHH)
VHH: B1 VHH with D1E, Q5V, L11V, T24A, F70I, V79L, K87R, P88A, Q116L
notes: as for B2
With B4 the “Emax (nm)” value [4] was 0.12 nm and the Kd [5] was 1.07 nM.

B5: VHH1.1 (humanized) (VHH)
VHH: B1 VHH with D1E, Q5V, L11V, K87R, P88A, Q116L
notes: as for B2
B5 was tested, and the “Emax (nm)” value [4] was 0.13 nm and the Kd [5] was 0.275 nM.

B6: VHH1.9 (humanized) (VHH)
VHH: EVQLVESGGGVVQPGGSLRLSCAASGFTLDDYTIGWVRQAPGKGLEGVSCFSPSDGTTYYADSVKGRFTISRDNAKNTLYLQMNSLRAEDTAVYYCAASFADGSSWCYDYWGQGTLVTVSS
notes: as for B2
In the case of B6, the “Emax (nm)” value [4] is reported as 0.1 nm and the Kd [5] is reported as 1.06 nM.

B7: VHH1.6 (humanized) (VHH)
VHH: B6 VHH with A24T, I70F
notes: as for B2
B7 was tested, and the “Emax (nm)” value [4] was 0.14 nm and the Kd [5] was 0.797 nM.

B8: VHH1.5 (humanized) (VHH)
VHH: B6 VHH with L79V
notes: as for B2
In the case of B8, the “Emax (nm)” value [4] is reported as 0.1 nm and the Kd [5] is reported as 0.888 nM.

B9: VHH1.4 (humanized) (VHH)
VHH: B6 VHH with A24T, I70F, L79V
notes: as for B2
B9 was tested, and the “Emax (nm)” value [4] was 0.12 nm and the Kd [5] was 0.547 nM.

B10: VHH1.8 (humanized) (VHH)
VHH: B6 VHH with A24T
notes: as for B2
With B10 the “Emax (nm)” value [4] was 0.1 nm and the Kd [5] was 1.13 nM.

B11: VHH1.2 (humanized) (VHH)
VHH: B6 VHH with A24T, G44E, L45H, I70F
notes: as for B2
In the case of B11, the “Emax (nm)” value [4] is reported as 0.12 nm and the Kd [5] is reported as 0.293 nM.

B12: VHH2.12 (humanized) (VHH)
VHH: EVQLVESGGGVVQPGGSLRLSCAASGQTWTNYHIGWFRQAPGKGLEWVASIEWGGRGTYATDSVKGRFTISRDNAKNTVYLQMNSLRAEDTAVYYCAAQSSSRSPLESNYDYWGQGTLVTVSS
notes: as for B2
B12 was tested, and the “Emax (nm)” value [6] was 0.14 nm and the Kd [7] was 4.24 nM.

B13: VHH2.16 (humanized) (VHH)
VHH: B12 VHH with V79L
notes: as for B2
In the case of B13, the “Emax (nm)” value [6] is reported as 0.11 nm and the Kd [7] is reported as 4.71 nM.

B14: VHH2.15 (humanized) (VHH)
VHH: B12 VHH with W47S, V79L
notes: as for B2
In the case of B14, the “Emax (nm)” value [6] is reported as 0.07 nm and the Kd [7] is reported as 12.3 nM.

B15: VHH2 SEEDbody eff- (bispecific antibody, part only; not given: silenced SEED Fc and cetuximab Fab, V domains shown, not shown: another chain or arm of the molecule; a dimerising Fc or GST; small tags and cut ends)
VHH: DVQLQESGGGLVQAGGSLRLSCAVSGQTWTNYHIGWFRQAPGKARESVASIEWGGRGTYATDSVKGRFTISRDNAKNTVYLQMNSLKPEDTAVYYCAAQSSSRSPLESNYDYWGQGTQVTVSS
For B15, the EC50 (nM), MNC based killing of A431 cells, E:T 80:1 [1] was 0.0132 nM, the EC50, lysis of A431 cells by isolated NK cells, E:T 10:1 [1] was 34.4 pM and the Max. IFNγ release (pg/ml), NK cells with A431 cells [1] was 580 pg/mL. The Max. Killing (% Lysis), MNC based killing of A431 cells, E:T 80:1 [1] was 51 % Lysis, the Max. TNFα release (pg/ml), NK cells with A431 cells [1] was 118 pg/mL and the EC50, lysis of A431 cells by isolated NK cells, E:T 10:1 [2] was 3.9 pM. The fold increase of killing potency, eff+ against eff- [2] was 8.8 fold, the Kd [3] was 3.27 nM and the koff [3] was 0.000646 s⁻¹. For the same binder, the kon [3] was 198000 M⁻¹ s⁻¹.
